From patent US20250084169A1 (published 2025)
Positions count from the first letter of the chain named. Where two headings read alike, the source gives them in different places.

Columns and labels:
[1] = target: T1, recombinant human Fc gamma RIIb/c (CD32b/c) (human, UniProt P31994 46-217)
T1 sequence (looked up): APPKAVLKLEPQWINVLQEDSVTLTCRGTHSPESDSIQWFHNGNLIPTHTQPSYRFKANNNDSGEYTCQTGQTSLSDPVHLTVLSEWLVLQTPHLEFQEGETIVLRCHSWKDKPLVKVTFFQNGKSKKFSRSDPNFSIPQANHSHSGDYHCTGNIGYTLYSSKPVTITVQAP

[2] = target: T2, recombinant human Fc gamma RIIa (CD32a) 131R (human, UniProt P12318 36-218)
T2 sequence (looked up): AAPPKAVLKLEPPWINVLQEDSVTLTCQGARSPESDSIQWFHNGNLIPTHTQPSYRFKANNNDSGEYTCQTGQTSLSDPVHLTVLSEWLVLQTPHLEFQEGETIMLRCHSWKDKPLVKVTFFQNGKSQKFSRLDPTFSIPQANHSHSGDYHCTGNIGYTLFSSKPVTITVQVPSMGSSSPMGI

[3] = target: T3, recombinant human Fc gamma RI (CD64) (human, UniProt P12314 16-288)
[4] = target: T4, recombinant human full-length CD20 (human, UniProt P11836 1-297)
T4 sequence (looked up): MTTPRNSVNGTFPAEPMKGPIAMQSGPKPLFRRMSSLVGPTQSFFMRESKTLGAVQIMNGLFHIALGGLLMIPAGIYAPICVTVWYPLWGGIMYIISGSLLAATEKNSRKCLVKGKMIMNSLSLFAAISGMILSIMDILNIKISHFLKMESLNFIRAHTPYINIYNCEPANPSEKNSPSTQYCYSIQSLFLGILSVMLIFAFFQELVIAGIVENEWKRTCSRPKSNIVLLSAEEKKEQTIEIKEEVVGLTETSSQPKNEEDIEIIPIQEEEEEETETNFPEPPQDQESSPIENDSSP

[5] = target: T5, cynomolgus monkey Fc gamma receptor CD16 (cynomolgus monkey, UniProt Q8SPW2 17-208)
[6] = target: T1, recombinant human Fc gamma RIIb/c …; remark: listed apart in the source
[7] = target: T2, recombinant human Fc gamma RIIa (CD32a) …; remark: listed apart in the source
[8] = target: T6, recombinant human Fc gamma RIIIb (CD16b) (human, UniProt O75015 17-200)
[9] = target: T7, recombinant human Fc gamma RIIa (CD32a) 131H (human, UniProt P12318 36-218)
T7 sequence (looked up): T2 sequence (looked up) with R132H

[10] = target: T3, recombinant human Fc gamma RI (CD64); remark: listed apart in the source
[11] = target: T8, recombinant human Fc gamma RIIIa (CD16a) 158V (human, UniProt P08637 17-208)
[12] = target: T9, cynomolgus monkey CD20 on cells (cynomolgus monkey, UniProt M4ZHZ6 1-297)
T9 sequence: T4 sequence (looked up) with S25P, F31L, T51A, A157V, K217R, N226S, I227V, T239V

[13] = target: T10, recombinant cynomolgus monkey CD20 (cynomolgus monkey, UniProt M4ZHZ6 1-297)
T10 sequence: T4 sequence (looked up) with S25P, F31L, T51A, A157V, K217R, N226S, I227V, T239V

[14] = target: T1, recombinant human Fc gamma RIIb/c …; remark: listed apart in the source
[15] = target: T11, recombinant human Fc gamma RIIIa (CD16a) 158F (human, UniProt P08637 17-208)
[16] = target: T2, recombinant human Fc gamma RIIa (CD32a) …; remark: listed apart in the source
[17] = target: T6, recombinant human Fc gamma RIIIb (CD16b); remark: listed apart in the source
[18] = target: T7, recombinant human Fc gamma RIIa (CD32a) …; remark: listed apart in the source
[19] = target: T3, recombinant human Fc gamma RI (CD64); remark: listed apart in the source
[20] = target: T8, recombinant human Fc gamma RIIIa …; remark: listed apart in the source
CD20 Lipoparticles = target: T12, CD20 Lipoparticles (Homo sapiens (Human), UniProt P11836 1-297)
T12 sequence: T4 sequence (looked up)

[21] = target: T5, cynomolgus monkey Fc gamma receptor CD16; remark: listed apart in the source
[22] = target: T11, recombinant human Fc gamma RIIIa …; remark: listed apart in the source
[23] = target: T6, recombinant human Fc gamma RIIIb (CD16b); remark: listed apart in the source
[24] = target: T8, recombinant human Fc gamma RIIIa …; remark: listed apart in the source
recombinant human CD19 = target: T13, recombinant human CD19 (human, UniProt P15391 20-291)
T13 sequence (looked up): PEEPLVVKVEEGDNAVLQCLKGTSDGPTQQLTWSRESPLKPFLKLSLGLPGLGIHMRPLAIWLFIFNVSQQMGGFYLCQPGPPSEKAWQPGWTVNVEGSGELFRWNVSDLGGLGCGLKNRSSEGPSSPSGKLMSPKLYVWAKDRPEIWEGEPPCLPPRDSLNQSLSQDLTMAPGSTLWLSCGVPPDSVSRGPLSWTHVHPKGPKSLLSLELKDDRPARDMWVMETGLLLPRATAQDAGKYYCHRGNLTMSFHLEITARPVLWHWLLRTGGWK

[25] = target: T14, cynomolgus monkey Fc gamma receptor CD32a (cynomolgus monkey)
[26] = target: T15, cynomolgus monkey Fc gamma receptor CD32b (cynomolgus monkey)
[27] = target: T16, cynomolgus monkey CD19 on cells (cynomolgus monkey, UniProt A0A2K5W8L9 20-557)
T16 sequence: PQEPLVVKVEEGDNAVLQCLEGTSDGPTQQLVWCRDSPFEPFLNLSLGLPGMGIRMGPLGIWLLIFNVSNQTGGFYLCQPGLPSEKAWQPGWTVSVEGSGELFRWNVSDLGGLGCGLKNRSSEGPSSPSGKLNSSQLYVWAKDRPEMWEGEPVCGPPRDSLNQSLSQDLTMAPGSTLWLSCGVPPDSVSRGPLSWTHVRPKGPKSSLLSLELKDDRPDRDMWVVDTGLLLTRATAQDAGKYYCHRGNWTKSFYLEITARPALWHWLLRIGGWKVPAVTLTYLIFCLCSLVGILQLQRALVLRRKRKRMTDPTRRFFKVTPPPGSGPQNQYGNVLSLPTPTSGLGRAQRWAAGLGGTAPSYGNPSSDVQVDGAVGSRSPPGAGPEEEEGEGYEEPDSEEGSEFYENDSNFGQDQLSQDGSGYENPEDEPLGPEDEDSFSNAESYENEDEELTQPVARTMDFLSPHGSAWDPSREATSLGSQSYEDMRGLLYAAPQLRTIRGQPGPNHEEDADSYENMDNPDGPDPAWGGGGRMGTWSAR

human CD19 on cells = target: T17, human CD19 on cells (human, UniProt P15391 20-556)
T17 sequence (looked up): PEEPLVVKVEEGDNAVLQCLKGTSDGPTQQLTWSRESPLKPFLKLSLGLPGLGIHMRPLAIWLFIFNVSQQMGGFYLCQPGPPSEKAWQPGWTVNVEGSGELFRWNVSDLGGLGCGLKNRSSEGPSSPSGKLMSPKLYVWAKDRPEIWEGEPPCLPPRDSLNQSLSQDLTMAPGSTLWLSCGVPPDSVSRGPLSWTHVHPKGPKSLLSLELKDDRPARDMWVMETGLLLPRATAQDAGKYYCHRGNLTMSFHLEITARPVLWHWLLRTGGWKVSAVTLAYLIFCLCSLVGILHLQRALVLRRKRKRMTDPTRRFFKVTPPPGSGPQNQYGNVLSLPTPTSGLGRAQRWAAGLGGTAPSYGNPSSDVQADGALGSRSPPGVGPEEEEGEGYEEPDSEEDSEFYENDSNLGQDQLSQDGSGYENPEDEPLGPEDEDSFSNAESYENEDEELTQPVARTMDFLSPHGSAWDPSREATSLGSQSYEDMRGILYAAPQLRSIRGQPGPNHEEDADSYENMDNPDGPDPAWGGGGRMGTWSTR

[28] = target: T18, recombinant cynomolgus monkey CD19 (cynomolgus monkey, UniProt A0A2K5W8L9 20-292)
T18 sequence: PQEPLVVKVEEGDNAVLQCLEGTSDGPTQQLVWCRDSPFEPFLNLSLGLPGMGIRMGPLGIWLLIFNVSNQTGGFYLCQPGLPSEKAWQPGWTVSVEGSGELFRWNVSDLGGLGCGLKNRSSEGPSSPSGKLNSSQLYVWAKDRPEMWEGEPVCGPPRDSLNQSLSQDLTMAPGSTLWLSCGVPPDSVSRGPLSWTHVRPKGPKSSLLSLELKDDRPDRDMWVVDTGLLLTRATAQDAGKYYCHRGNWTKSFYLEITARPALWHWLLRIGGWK

[29] = target: T14, cynomolgus monkey Fc gamma receptor …; remark: listed apart in the source
[30] = target: T15, cynomolgus monkey Fc gamma receptor …; remark: listed apart in the source

T5 sequence (Q8SPW2 17-208 limits assumed): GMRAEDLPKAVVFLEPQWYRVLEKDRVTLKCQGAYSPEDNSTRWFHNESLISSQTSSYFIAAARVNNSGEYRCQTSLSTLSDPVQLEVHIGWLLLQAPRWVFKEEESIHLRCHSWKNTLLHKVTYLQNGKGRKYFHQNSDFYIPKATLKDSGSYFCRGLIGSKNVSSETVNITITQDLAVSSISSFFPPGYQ
T11 sequence (P08637 17-208 limits assumed): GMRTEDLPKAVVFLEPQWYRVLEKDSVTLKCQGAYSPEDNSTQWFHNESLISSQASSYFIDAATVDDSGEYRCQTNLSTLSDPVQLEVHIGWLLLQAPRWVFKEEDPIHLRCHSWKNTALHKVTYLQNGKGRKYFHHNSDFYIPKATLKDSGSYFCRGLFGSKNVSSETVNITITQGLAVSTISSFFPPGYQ
T6 sequence (O75015 17-200 limits assumed): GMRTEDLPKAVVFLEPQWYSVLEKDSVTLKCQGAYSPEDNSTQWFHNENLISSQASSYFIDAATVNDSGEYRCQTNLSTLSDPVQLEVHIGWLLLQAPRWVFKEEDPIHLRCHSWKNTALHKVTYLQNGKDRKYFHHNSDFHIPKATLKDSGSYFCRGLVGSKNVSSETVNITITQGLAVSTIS
T3 sequence (P12314 16-288 limits assumed): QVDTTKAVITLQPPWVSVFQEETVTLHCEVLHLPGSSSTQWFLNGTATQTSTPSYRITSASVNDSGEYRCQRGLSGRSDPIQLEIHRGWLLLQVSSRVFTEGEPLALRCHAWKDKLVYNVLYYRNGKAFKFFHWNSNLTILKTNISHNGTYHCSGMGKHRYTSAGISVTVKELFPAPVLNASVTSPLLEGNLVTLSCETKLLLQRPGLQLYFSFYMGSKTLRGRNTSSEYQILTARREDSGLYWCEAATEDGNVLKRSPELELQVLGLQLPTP
T8 sequence (P08637 17-208 F176V limits assumed): as the sequence (P08637 17-208 limits assumed) above, with F160V counted along it

B1: Rituximab (antibody)
VH: not shown
VL: QIVLSQSPAILSASPGEKVTMTCRASSSVSYIHWFQQKPGSSPKPWIYATSNLASGVPVRFSGSGSGTSYSLTISRVEAEDAATYYCQQWTSNPPTFGGGTKLEIKRTVAAPSVFIFPPSDEQLKSGTASVVCLLNNFYPREAKVQWKVDNALQSGNSQESVTEQDSKDSTYSLSSTLTLSKADYEKHKVYACEVTHQGLSSPVTKSFNRGEC
**Q.** How did the Kd [1] turn out when B1 was run?
**A.** 8880 nM

**Q.** And the Kd [2]?
**A.** 635 nM

**Q.** And the Kd [3]?
**A.** 0.0547 nM

**Q.** What about the Kd [4] of the same binder?
**A.** 0.46 nM

**Q.** And the Kd [5]?
**A.** 130 nM

**Q.** What about the Kd [6] of the same binder?
**A.** 1520 nM

**Q.** What about the Kd [7] of the same binder?
**A.** 1250 nM

**Q.** What about the Kd [8] of the same binder?
**A.** 1530 nM

**Q.** And the Kd [9]?
**A.** 892 nM

**Q.** And the Kd [10]?
**A.** 52.8 nM

**Q.** And the Kd [11]?
**A.** 715 nM

**Q.** And the EC50 [12]?
**A.** 0.61 nM

**Q.** And the Kd [13]?
**A.** 1.1 nM

**Q.** What about the Kd [14] of the same binder?
**A.** 6680 nM

**Q.** What about the Kd [15] of the same binder?
**A.** 1530 nM

**Q.** And the Kd [16]?
**A.** 2330 nM

**Q.** What about the Kd [17] of the same binder?
**A.** 4090 nM

**Q.** What about the Kd [18] of the same binder?
**A.** 1740 nM

**Q.** And the Kd [19]?
**A.** 11.3 nM

**Q.** And the Kd [20]?
**A.** 595 nM

**Q.** And the Kd (CD20 Lipoparticles)?
**A.** < 0.001 nM

**Q.** What about the Kd [21] of the same binder?
**A.** 425 nM

**Q.** And the Kd [22]?
**A.** 1520 nM

**Q.** And the Kd [23]?
**A.** 4320 nM

**Q.** And the Kd [24]?
**A.** 309 nM

B2: Tafasitamab-cxix (research grade biosimilar) (antibody, human IgG1, kappa)
heavy: EVQLVESGGGLVKPGGSLKLSCAASGYTFTSYVMHWVRQAPGKGLEWIGYINPYNDGTKYNEKFQGRVTISSDKSISTAYMELSSLRSEDTAMYYCARGTYYYGTRVFDYWGQGTLVTVSSASTKGPSVFPLAPSSKSTSGGTAALGCLVKDYFPEPVTVSWNSGALTSGVHTFPAVLQSSGLYSLSSVVTVPSSSLGTQTYICNVNHKPSNTKVDKKVEPKSCDKTHTCPPCPAPELLGGPDVFLFPPKPKDTLMISRTPEVTCVVVDVSHEDPEVQFNWYVDGVEVHNAKTKPREEQFNSTFRVVSVLTVVHQDWLNGKEYKCKVSNKALPAPEEKTISKTKGQPREPQVYTLPPSREEMTKNQVSLTCLVKGFYPSDIAVEWESNGQPENNYKTTPPMLDSDGSFFLYSKLTVDKSRWQQGNVFSCSVMHEALHNHYTQKSLSLSPG
light: DIVMTQSPATLSLSPGERATLSCRSSKSLQNVNGNTYLYWFQQKPGQSPQLLIYRMSNLNSGVPDRFSGSGSGTEFTLTISSLEPEDFAVYYCMQHLEYPITFGAGTKLEIKRTVAAPSVFIFPPSDEQLKSGTASVVCLLNNFYPREAKVQWKVDNALQSGNSQESVTEQDSKDSTYSLSSTLTLSKADYEKHKVYACEVTHQGLSSPVTKSFNRGEC
**Q.** For B2, which Kd [1] is on record?
**A.** 99.4 nM

**Q.** And the Kd [2]?
**A.** 39.1 nM

**Q.** And the Kd [3]?
**A.** < 0.02 nM

**Q.** And the Kd (recombinant human CD19)?
**A.** 1.4 nM

**Q.** And the Kd [25]?
**A.** 76.2 nM

**Q.** And the Kd [5]?
**A.** 1.34 nM

**Q.** What about the Kd [26] of the same binder?
**A.** 53 nM

**Q.** What about the EC50 [27] of the same binder?
**A.** 57 nM

**Q.** What about the EC50 (human CD19 on cells) of the same binder?
**A.** 1 nM

**Q.** And the Kd [28]?
**A.** 1800 nM

**Q.** And the Kd [14]?
**A.** 234 nM

**Q.** What about the Kd [15] of the same binder?
**A.** 121 nM

**Q.** And the Kd [16]?
**A.** 203 nM

**Q.** And the Kd [17]?
**A.** 176 nM

**Q.** What about the Kd [18] of the same binder?
**A.** 231 nM

**Q.** And the Kd [19]?
**A.** 5.6 nM

**Q.** What about the Kd [20] of the same binder?
**A.** 88.9 nM

**Q.** And the Kd [29]?
**A.** 181 nM

**Q.** And the Kd [21]?
**A.** 49.5 nM

**Q.** And the Kd [30]?
**A.** 152 nM

**Q.** What about the Kd [22] of the same binder?
**A.** 15.3 nM

**Q.** And the Kd [23]?
**A.** 62.1 nM

**Q.** What about the Kd [24] of the same binder?
**A.** 4.19 nM
